Legend:
[1] = system: AncSZ; assay: phosphorylation enrichment, bacterial display (enrichment ratio); higher = better substrate or ligand; peptides without Tyr show the background
[2] = target: EPHB1 (UniProt P54762); assay: as above
[3] = target: EPHB2 (UniProt P29323); assay: as above
[4] = target: FGFR1 (UniProt P11362); assay: as above
[5] = target: FGFR3 (UniProt P22607); assay: as above
[6] = system: Fer (mouse); assay: as above
[7] = target: Fes (UniProt P07332); assay: as above
[8] = target: Fyn (UniProt P06241); assay: as above
Sequence of Fyn (P06241 whole entry, looked up): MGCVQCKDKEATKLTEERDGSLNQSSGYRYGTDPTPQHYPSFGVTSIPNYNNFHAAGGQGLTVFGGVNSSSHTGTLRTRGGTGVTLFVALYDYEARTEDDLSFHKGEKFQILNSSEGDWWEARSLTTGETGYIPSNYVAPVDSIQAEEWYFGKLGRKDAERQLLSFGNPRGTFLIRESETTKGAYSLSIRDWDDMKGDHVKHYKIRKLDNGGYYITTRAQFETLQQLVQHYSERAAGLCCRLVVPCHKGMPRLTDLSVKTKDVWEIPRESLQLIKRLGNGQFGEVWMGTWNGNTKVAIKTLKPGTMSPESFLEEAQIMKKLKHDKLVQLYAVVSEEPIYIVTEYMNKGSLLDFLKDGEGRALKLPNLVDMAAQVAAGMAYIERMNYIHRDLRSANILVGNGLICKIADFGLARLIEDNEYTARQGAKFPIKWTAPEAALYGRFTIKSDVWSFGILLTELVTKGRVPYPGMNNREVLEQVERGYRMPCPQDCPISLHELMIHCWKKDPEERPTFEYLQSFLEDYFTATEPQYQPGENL

[9] = target: Hck (UniProt P08631); assay: as above
[10] = target: Jak2 (UniProt O60674); assay: as above
Sequence of Jak2 (O60674 whole entry, looked up): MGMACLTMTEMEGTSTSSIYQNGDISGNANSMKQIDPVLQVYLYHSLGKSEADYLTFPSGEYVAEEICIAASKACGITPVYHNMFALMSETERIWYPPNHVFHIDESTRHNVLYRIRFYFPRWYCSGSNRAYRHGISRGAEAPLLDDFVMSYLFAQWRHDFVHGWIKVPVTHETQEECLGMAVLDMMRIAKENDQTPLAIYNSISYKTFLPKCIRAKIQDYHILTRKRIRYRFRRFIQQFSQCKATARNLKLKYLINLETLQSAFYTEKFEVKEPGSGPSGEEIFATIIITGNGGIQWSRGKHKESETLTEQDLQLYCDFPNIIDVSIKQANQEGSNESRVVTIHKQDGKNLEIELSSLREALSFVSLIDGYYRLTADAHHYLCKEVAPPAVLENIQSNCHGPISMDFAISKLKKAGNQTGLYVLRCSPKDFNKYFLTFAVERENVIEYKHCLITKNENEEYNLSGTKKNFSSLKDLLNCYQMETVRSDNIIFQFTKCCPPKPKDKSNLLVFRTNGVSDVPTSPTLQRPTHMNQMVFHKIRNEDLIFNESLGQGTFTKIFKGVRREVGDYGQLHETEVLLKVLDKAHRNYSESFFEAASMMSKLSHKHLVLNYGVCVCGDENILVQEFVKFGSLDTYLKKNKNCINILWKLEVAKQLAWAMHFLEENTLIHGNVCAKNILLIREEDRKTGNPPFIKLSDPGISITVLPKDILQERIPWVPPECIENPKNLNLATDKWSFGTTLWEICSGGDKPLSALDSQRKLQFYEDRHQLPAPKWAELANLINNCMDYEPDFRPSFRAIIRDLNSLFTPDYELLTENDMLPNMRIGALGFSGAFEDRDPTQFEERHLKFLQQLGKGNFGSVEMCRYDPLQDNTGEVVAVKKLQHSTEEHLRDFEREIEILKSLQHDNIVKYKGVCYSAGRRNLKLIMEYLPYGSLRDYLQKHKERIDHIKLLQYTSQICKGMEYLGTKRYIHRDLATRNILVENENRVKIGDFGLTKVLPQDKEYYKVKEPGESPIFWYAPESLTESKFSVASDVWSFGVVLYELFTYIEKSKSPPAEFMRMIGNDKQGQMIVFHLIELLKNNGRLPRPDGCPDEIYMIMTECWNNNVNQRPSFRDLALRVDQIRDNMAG

[11] = target: MERTK (UniProt Q12866); assay: as above
[12] = system: c-Abl (mouse); assay: as above
[13] = system: c-Src; assay: as above
[14] = target: Grb2 SH2 (UniProt P62993); assay: SH2 binding enrichment of the phosphorylated peptide, bacterial display (enrichment ratio); higher = better substrate or ligand; peptides without Tyr show the background
Sequence of Grb2 SH2 (P62993 whole entry, looked up): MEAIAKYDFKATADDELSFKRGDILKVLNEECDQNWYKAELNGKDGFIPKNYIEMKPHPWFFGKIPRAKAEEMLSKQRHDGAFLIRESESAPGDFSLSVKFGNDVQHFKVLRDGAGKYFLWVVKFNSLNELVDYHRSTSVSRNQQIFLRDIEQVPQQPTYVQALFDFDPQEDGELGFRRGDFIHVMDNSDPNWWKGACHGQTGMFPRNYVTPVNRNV

[15] = target: SHP2-C SH2; assay: as above
[16] = target: c-Src SH2; assay: as above
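Throughout, for SH2 binding enrichment of the phosphorylated peptide, bacterial display: peptide library displayed on the E. coli surface as eCPX fusions, selected cells deep-sequenced, score is each peptide's frequency after selection divided by its frequency in the input.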
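Throughout, for phosphorylation enrichment, bacterial display: 11-residue human phosphosite peptides and single-mutation variants displayed on the E. coli surface, counted by deep sequencing, each peptide's frequency after selection divided by its frequency in the unselected input library; frequency after pTyr selection over input frequency; kinase dosed for 20-30% of maximal phosphorylation in three min.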

Sequence of EPHB2 (P29323 whole entry, looked up): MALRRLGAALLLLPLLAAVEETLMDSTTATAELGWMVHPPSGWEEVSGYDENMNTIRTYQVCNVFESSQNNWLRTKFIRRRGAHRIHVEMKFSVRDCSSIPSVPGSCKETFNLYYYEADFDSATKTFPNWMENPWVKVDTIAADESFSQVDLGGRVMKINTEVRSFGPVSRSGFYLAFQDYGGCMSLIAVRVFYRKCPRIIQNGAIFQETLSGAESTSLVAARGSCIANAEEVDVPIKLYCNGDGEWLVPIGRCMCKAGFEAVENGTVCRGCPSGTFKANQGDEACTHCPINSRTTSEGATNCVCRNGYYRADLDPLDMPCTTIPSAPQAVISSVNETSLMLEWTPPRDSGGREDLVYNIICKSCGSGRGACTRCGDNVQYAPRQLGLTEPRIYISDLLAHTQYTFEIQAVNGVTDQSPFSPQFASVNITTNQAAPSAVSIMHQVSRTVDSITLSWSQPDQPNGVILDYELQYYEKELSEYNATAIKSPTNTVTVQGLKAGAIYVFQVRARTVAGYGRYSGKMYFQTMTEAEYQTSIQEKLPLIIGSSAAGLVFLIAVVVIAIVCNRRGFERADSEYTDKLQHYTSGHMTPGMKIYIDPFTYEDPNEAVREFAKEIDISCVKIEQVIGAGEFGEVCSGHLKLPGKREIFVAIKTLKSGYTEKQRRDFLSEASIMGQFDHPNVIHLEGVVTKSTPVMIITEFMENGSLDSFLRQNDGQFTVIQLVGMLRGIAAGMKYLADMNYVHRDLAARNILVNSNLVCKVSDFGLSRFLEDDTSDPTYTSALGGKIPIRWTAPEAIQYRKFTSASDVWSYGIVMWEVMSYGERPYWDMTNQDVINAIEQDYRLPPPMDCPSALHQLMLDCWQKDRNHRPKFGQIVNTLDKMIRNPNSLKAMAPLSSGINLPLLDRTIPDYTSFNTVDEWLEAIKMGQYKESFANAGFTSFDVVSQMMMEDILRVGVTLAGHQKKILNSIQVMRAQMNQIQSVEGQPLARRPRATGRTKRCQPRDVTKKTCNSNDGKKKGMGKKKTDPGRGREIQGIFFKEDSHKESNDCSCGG
Sequence of Fes (P07332 whole entry, looked up): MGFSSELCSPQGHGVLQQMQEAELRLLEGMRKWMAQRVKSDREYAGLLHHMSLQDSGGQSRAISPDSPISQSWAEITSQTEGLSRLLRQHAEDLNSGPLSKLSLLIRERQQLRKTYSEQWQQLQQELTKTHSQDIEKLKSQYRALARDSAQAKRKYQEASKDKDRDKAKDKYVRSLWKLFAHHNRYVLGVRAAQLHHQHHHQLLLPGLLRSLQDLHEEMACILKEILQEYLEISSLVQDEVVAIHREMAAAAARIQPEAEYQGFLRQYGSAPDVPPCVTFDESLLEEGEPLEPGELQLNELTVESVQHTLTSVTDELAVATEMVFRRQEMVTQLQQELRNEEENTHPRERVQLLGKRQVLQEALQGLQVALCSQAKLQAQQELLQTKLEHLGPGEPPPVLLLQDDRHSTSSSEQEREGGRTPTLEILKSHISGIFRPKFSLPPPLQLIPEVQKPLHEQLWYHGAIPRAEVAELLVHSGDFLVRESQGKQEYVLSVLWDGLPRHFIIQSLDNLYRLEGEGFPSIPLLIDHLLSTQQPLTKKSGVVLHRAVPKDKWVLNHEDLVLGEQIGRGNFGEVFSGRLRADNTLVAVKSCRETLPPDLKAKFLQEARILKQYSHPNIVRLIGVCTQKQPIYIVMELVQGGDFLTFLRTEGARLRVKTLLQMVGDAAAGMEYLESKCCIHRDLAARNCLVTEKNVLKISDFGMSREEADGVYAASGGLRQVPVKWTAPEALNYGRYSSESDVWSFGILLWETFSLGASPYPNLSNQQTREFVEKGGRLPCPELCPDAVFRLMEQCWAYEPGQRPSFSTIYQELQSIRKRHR
Sequence of FGFR3 (P22607 whole entry, looked up): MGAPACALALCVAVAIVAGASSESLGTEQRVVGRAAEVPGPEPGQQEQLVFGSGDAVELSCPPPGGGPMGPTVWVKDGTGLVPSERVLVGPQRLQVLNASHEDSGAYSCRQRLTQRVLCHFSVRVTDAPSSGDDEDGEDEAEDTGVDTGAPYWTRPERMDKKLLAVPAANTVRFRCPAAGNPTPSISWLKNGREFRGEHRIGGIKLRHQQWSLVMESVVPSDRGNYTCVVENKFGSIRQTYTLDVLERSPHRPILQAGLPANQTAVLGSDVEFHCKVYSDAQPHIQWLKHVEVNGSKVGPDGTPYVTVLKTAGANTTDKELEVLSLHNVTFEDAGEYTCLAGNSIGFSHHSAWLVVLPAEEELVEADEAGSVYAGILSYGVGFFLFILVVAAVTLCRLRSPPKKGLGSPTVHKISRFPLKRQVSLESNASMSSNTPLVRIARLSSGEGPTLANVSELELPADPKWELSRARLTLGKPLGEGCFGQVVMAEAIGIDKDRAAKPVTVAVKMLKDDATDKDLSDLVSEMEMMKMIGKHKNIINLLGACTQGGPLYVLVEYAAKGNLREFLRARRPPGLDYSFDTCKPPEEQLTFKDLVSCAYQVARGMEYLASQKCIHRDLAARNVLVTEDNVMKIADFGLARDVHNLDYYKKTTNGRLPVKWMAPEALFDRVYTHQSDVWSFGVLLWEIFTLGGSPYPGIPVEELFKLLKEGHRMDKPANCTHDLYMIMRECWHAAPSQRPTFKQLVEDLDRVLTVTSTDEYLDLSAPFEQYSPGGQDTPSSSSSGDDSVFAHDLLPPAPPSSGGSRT

Sequence	phosphorylation enrichment [1]	phosphorylation enrichment [2]	phosphorylation enrichment [3]	phosphorylation enrichment [4]	phosphorylation enrichment [5]	phosphorylation enrichment [6]	phosphorylation enrichment [7]	phosphorylation enrichment [8]	phosphorylation enrichment [9]	phosphorylation enrichment [10]	phosphorylation enrichment [11]	phosphorylation enrichment [12]	phosphorylation enrichment [13]	SH2 binding enrichment [14]	SH2 binding enrichment [15]	SH2 binding enrichment [16]
GPSTPYTKSKR [SMARCC2_Y324]	0.408	0.322	0.299	0.363	0.362	0.324	0.511	0.405	0.319	0.497	0.353	0.651	0.452	0.746	0.758	0.505
GQETSYIEDNC [PAH_Y24]	1.47	0.83	0.758	0.452	0.769	0.51	1.28	0.507	0.666	1.15	0.466	0.74	0.515	1.05	0.559	0.68
GRERPYGGGGG [FUS_Y526_R521G]	0.498	0.654	0.492	1.02	0.487	0.6	0.565	0.357	0.787	0.512	0.968	0.416	0.854	0.722	0.824	0.485
GREYIYVDPMQ [PDGFRA_Y574_H570R]	3.12	6.9	8.24	12.7	8.94	1.21	0.801	1.73	2.05	1.17	4.27	5.21	1.86	0.95	0.718	0.53
GRRGQYVMPSE [TTC7A_Y396_L399P]	0.586	0.356	0.481	0.433	0.394	0.39	0.557	0.415	0.41	0.323	0.465	0.482	0.41	0.782	0.519	1.92
GRVLGYGTFGK [FLT4_Y853_A855T]	0.553	0.372	0.538	0.338	0.414	0.393	0.633	0.543	0.417	0.617	0.369	0.533	0.623	1.01	0.7	0.725
GSPAPYRRRKR [MBD1_Y403_P401A]	0.617	0.466	0.499	0.596	0.426	0.505	0.545	0.502	0.498	0.632	0.608	0.497	0.618	0.594	0.413	0.42
GSSEDYLHMVH [NIPBL_Y247]	0.978	0.475	0.473	1.07	1	0.416	0.874	0.423	0.449	0.874	0.485	0.646	0.524	0.743	0.556	0.465
GTHCHYKAPTV [FZD9_Y569]	0.648	0.421	0.39	0.493	0.51	0.505	0.79	0.442	0.429	0.667	0.442	3.71	0.485	1.25	0.913	1.3

— the supplement of paper PMC10065799, “High-throughput profiling of sequence recognition by tyrosine kinases and SH2 domains using bacterial peptide display” (eLife, 2023)
